Assay results from publication PMC13694701 (2026).

What was measured:
TRIM62 PRY-SPRY = TRIM62 PRY-SPRY (Homo sapiens, UniProt Q9BVG3); assay: MST
TRIM62 = TRIM62 (Homo sapiens, UniProt Q9BVG3); assay: MST
Sequence of TRIM62 (Q9BVG3 whole entry): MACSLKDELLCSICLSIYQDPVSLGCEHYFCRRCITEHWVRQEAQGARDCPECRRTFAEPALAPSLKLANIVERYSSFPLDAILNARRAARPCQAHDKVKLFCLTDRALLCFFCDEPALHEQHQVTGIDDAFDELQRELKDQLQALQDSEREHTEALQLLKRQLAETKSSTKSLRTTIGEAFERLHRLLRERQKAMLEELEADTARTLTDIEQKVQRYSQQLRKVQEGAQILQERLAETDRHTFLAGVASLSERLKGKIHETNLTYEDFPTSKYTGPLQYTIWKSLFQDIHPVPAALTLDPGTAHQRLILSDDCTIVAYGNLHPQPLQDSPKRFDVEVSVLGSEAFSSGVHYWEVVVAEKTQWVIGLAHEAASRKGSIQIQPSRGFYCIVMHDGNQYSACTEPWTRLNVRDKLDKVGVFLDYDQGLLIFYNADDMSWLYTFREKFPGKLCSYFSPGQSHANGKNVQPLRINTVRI

Sequence of TRIM62 PRY-SPRY (Q9BVG3 277-475): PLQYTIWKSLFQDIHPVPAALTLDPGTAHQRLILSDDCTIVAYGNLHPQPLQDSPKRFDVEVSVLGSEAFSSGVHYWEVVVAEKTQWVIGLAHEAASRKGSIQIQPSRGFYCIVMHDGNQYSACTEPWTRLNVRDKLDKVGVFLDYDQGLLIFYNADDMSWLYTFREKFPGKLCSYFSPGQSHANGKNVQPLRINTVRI

B1: FAM21 1-356 (protein)
chain: MMNRTTPDQELVPASEPVWERPWSVEEIRRSSQSWSLAADAGLLQFLQEFSQQTISRTHEIKKQVDGLIRETKATDCRLHNVFNDFLMLSNTQFIENRVYDEEVEEPVLKAEAEKTEQEKTREQKEVDLIPKVQEAVNYGLQVLDSAFEQLDIKAGNSDSEEDDANGRVELILEPKDLYIDRPLPYLIGSKLFMEQEDVGLGELSSEEGSVGSDRGSIVDTEEEKEEEESDEDFAHHSDNEQNQHTTQMSDEEEDDDGCDLFADSEKEEEDIEDIEENTRPKRSRPTSFADELAARIKGDAMGRVDEEPTTLPSGEAKPRKTLKEKKERRTPSDDEEDNLFAPPKLTDEDFSPFGS
Kd (TRIM62 PRY-SPRY): 44.9 µM
Kd (TRIM62): 0.4 µM
